These results are taken from patent publication US20230265151A1, “GIP/GLP1 CO-AGONIST COMPOUNDS” (priority 2020, published 2023).

*1 amine or outer side, *2 acyl side, *3 side chain or, on linkers, in order; H or OH if unused. Where no end group is shown, it is not given here. Side-chain parts run from the residue outwards. [ ]: non-standard residue; d: D form. The star is where a group is joined. αMePhe(2-F) = C[C@](N)(Cc1ccccc1F)C(=O)O; γGlu = O=C(O)[C@H](CCC(=O)[*:2])N[*:1]; C14 diacid = O=C(O)CCCCCCCCCCCCC(=O)*; εLys = N[C@@H](CCCCN[*:1])C(=O)[*:2]; αMeY = C[C@](N)(Cc1ccc(O)cc1)C(=O)O; αMeL = CC(C)C[C@](C)(N)C(=O)O; Orn = NCCC[C@H](N)C(=O)O; AEEA = NCCOCCOCC(=O)O; Aib = CC(C)(N)C(=O)O Some results are limits rather than exact numbers.

What all share (experiment): cell-based or functional assay
Experiment [1] addresses T1, human glucose-dependent insulinotropic polypeptide (GIP) receptor (human, UniProt P48546 22-466).
T1 sequence (looked up): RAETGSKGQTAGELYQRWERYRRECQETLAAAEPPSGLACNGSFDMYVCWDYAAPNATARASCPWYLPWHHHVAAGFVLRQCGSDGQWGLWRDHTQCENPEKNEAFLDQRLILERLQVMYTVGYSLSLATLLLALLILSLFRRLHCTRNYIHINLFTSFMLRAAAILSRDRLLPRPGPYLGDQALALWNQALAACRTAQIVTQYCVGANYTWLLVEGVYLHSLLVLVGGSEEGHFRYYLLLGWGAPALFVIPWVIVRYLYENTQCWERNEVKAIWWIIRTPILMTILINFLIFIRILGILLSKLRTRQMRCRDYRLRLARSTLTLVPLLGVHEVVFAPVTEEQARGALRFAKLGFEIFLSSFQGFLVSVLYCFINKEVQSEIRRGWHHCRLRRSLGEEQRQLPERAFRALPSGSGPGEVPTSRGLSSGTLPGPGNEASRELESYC

The target in experiment [2] is human glucagon-like peptide-1 (GLP-1) receptor (human, UniProt P43220 24-463).
The target of a further experiment is human glucagon receptor (human, UniProt P47871 26-477).

B1: Example 161 (peptide)
peptide: YXEGTXTSDXSIXLDXKAQXEFIKXLIEGGPSSGAPPPS
modifications: Aib2, aMeF(2F)6, 4Pal10, aMeL13, Orn16, K17(Z), Aib20, K24(Z), αMeY25, C-terminal NH2; Z = eK-gE-C14_OH (so in the source)
Consider B1, for which the “cAMP EC50” value in experiment [1] was 0.0207 nM; in experiment [2], 0.203 nM; in the experiment with human glucagon receptor it was greater than 9950 nM.

B2: Example 173 (peptide)
peptide: YXEGTXTSDXSIXLDXKAQXEXIXXLIEGGKSSGAPPPS
modifications: Aib2, αMeF6, 4Pal10, αMeL13, Orn16, K17(Z), Aib20, αMeF22, D-Glu24, αMeY25, K31(Z), C-terminal NH2; Z = AEEA2-(γ-Glu)-CO-(CH2)10-CH3
Regarding B2, the “cAMP EC50” value in experiment [1] is 0.0155 nM; in experiment [2], 0.343 nM; in the experiment with human glucagon receptor, greater than 9950 nM. The entries for the “cAMP Emax” value in experiment [1] and in experiment [2] were 87.8% and 89.9%, respectively.

B3: Example 280 (peptide)
peptide: YXEGTXTSDXSIXLDXIAQXKFIXXLIKGGPSSGAPPPS
modifications: Aib2, αMeF(2F)6, OMeY10, αMeL13, Orn16, Aib20, K21(Z), D-Glu24, αMeY25, K28(Z), C-terminal NH2; Z = AEEA2-(γ-Glu)-(10-(4-carboxyphenoxy)decanoyl)
Turning to B3, the figures for the “cAMP EC50” value (in experiment [1]; in experiment [2]; with human glucagon receptor) were 0.0229 nM, 0.346 nM and greater than 9950 nM, respectively.

B4: Example 158 (peptide)
peptide: YXEGTXTSDXSIXLDXKAQXEFIEXLIEGGKSSGAPPPS
modifications: Aib2, αMeF(2F)6, 4Pal10, αMeL13, Orn16, K17(Z), Aib20, αMeY25, K31(Z), C-terminal NH2; Z = AEEA2-(γ-Glu)-CO-(CH2)12-CO2H
Consider B4, for which the “cAMP EC50” value in experiment [1] was 0.0204 nM; in experiment [2], 0.448 nM; with human glucagon receptor, greater than 9950 nM. The “cAMP Emax” value worked out at 93.4% in experiment [1] and 87.2% in experiment [2].

B5: Example 290 (peptide)
peptide: YXEGTXTSDXSIXLDXKAQXEFIXXLIKGGPSSGAPPPS
modifications: Aib2, αMeF(2F)6, OMeY10, αMeL13, Orn16, K17(Z), Aib20, D-Glu24, αMeY25, K28(Z), C-terminal NH2; Z = AEEA2-(γ-Glu)-CO-(CH2)10-CH3
For B5, the “cAMP EC50” value was 0.0188 nM in experiment [1], 0.324 nM in experiment [2] and greater than 9950 nM with human glucagon receptor.

B6: Example 279 (peptide)
peptide: YXEGTXTSDXSIXLDXIAQXEFIKXLIKGGPSSGAPPPS
modifications: Aib2, αMeF(2F)6, OMeY10, αMeL13, Orn16, Aib20, K24(Z), αMeY25, K28(Z), C-terminal NH2; Z = AEEA2-(γ-Glu)-(10-(4-carboxyphenoxy)decanoyl)
Take B6: the “cAMP EC50” value was 0.0305 nM in experiment [1], 0.406 nM in experiment [2] and greater than 9950 nM with human glucagon receptor.

B7: Example 289 (peptide)
peptide: YXEGTXTSDXSIXLDXKAQXKFIXXLIEGGPSSGAPPPS
modifications: Aib2, αMeF(2F)6, OMeY10, αMeL13, Orn16, K17(Z), Aib20, K21(Z), D-Glu24, αMeY25, C-terminal NH2; Z = AEEA2-(γ-Glu)-CO-(CH2)10-CH3
As to B7, the “cAMP EC50” value was 0.017 nM in experiment [1], 0.731 nM in experiment [2] and greater than 9950 nM in the experiment with human glucagon receptor.

B8: Example 157 (peptide)
peptide: YXEGTXTSDXSIXLDXKAQXXFIXXLIEGGKSSGAPPPS
modifications: Aib2, αMeF(2F)6, 4Pal10, αMeL13, Orn16, K17(Z), Aib20, 4Pal21, D-Glu24, αMeY25, K31(Z), C-terminal NH2; Z = AEEA2-(γ-Glu)-CO-(CH2)12-CO2H
Regarding B8, the “cAMP EC50” value in experiment [1] is 0.0286 nM; in experiment [2] it was 0.94 nM; in the experiment with human glucagon receptor, greater than 9950 nM. Besides, the “cAMP Emax” value in experiment [1] came out at 98.8%.

B9: Example 281 (peptide)
peptide: YXEGTXTSDXSIXLDXKAQXKFIXXLIEGGPSSGAPPPS
modifications: Aib2, αMeF(2F)6, 2Nal10, αMeL13, Orn16, K17(Z), Aib20, K21(Z), D-Glu24, αMeY25, C-terminal NH2; Z = AEEA2-(γ-Glu)-(10-(4-carboxyphenoxy)decanoyl)
As to B9, the “cAMP EC50” value in experiment [1] was 0.0187 nM; in experiment [2], 0.252 nM; in the experiment with human glucagon receptor, greater than 9950 nM.

B10: Example 171 (peptide)
peptide: YXEGTXTSDXSIXLDXKAQXEFIXXLIEGGKSSGAPPPS
modifications: Aib2, αMeF(2F)6, 4Pal10, αMeL13, Orn16, K17(Z), Ac6c20, D-Glu24, αMeY25, K31(Z), C-terminal NH2; Z = AEEA2-(γ-Glu)-CO-(CH2)12-CO2H
As for B10, the “cAMP EC50” value in experiment [1] is 0.0389 nM; in experiment [2] it was 1.7 nM; with human glucagon receptor, greater than 9950 nM.

B11: Example 285 (peptide)
peptide: YXEGTXTSDXSIXLDXKAQXEFIXXLIEGGPSSGAPPPSK
modifications: Aib2, αMeF(2F)6, 4Pal10, αMeL13, Orn16, K17(Z), Aib20, D-Glu24, αMeY25, K40(Z), C-terminal NH2; Z = AEEA2-(γ-Glu)-(11-(4-carboxyphenoxy)undecanoyl)
With B11, the “cAMP EC50” value in experiment [1] is 0.0115 nM; in experiment [2], 1.21 nM; with human glucagon receptor it was greater than 9950 nM.

B12: Example 288 (peptide)
peptide: YXEGTXTSDXSIXLDXIAQXKFIXXLIEGGPSSGAPPPSK
modifications: Aib2, αMeF(2F)6, 4Pal10, αMeL13, Orn16, Aib20, K21(Z), D-Glu24, αMeY25, K40(Z), C-terminal NH2; Z = AEEA2-(γ-Glu)-(11-(4-carboxyphenoxy)undecanoyl)
Turning to B12, the “cAMP EC50” value in experiment [1] is 0.0219 nM; in experiment [2], 0.354 nM; with human glucagon receptor, greater than 9950 nM.
Turning to Y[Aib]EGT[αMePhe(2-F)]TSDV[Aib]I[αMeL]LD[Orn]K([εLys-γGlu-C14 diacid])AQ[Aib]EFIK([εLys-γGlu-C14 diacid])[αMeY]LIEGGPSSGAPPPS-NH2 [Example 167], the “cAMP EC50” value is 0.0534 nM in experiment [1], 0.217 nM in experiment [2] and greater than 9950 nM with human glucagon receptor. The “cAMP Emax” value stood at 99.5% in experiment [1] and 91.4% in experiment [2].
Y[Aib]EGT[αMePhe(2-F)]TSDV[Aib]I[αMeL]LD[Orn]K([εLys-εLys-γGlu-C14 diacid])AQ[Aib]EFIK([εLys-εLys-γGlu-C14 diacid])[αMeY]LIEGGPSSGAPPPS-NH2 [Example 168]: the “cAMP EC50” value in experiment [1] was 0.0482 nM; in experiment [2], 0.312 nM; with human glucagon receptor it was greater than 9950 nM. The “cAMP Emax” value in experiment [1] is 93%; in experiment [2], 93.3%.
Turning to Y[Aib]EGT[αMePhe(2-F)]TSDV[Aib]I[αMeL]LD[Orn]K([AEEA-AEEA-εLys-C14 diacid])AQ[Aib]EFIK([AEEA-AEEA-εLys-C14 diacid])[αMeY]LIEGGPSSGAPPPS-NH2 [Example 166], the “cAMP EC50” value is 0.0774 nM in experiment [1], 0.192 nM in experiment [2] and greater than 9950 nM with human glucagon receptor. Also, the entries for the “cAMP Emax” value in experiment [1] and in experiment [2] were 97% and 90.3%, respectively.
